Data reported in PMC7835709, “Structural Insight Into the SARS-CoV-2 Nucleocapsid Protein C-Terminal Domain Reveals a Novel Recognition Mechanism for Viral Transcriptional Regulatory Sequences”.

Legend:
SARS-CoV-2 N-CTD = SARS-CoV-2 N-CTD (SARS-CoV-2, UniProt P0DTC9 250-365); assay: BLI; conditions: protein: recombinant; tags: 6xHis-SUMO tag removed by Ulp1; chain copies: 2; label: 5' biotin
SARS-CoV-2 N CTD+IDR [1] = target: T1, SARS-CoV-2 N CTD+IDR (SARS-CoV-2, UniProt P0DTC9 250-419); assay: BLI; BLI (Octet RED96e, SSA sensors, biotinylated RNA immobilised): PBS, 0.02% Tween 20, 25 C; pH not stated; 1:1 kinetic fit; conditions: protein: recombinant, tags: 6xHis-SUMO tag removed by Ulp1, chain copies: 2
SARS-CoV-2 N LKR+CTD [2] = target: T2, SARS-CoV-2 N LKR+CTD (SARS-CoV-2, UniProt P0DTC9 183-365); assay: as above; conditions: protein: recombinant; tags: 6xHis-SUMO tag removed by Ulp1; chain copies: 2; label: 5' biotin
SARS-CoV-2 N CTD+IDR [3] = target: T1, SARS-CoV-2 N CTD+IDR; assay: BLI; value order as in text ('respectively'); BLI (Octet RED96e, SSA sensors, biotinylated RNA immobilised): PBS, 0.02% Tween 20, 25 C; pH not stated; 1:1 kinetic fit; conditions: protein: recombinant; tags: 6xHis-SUMO tag removed by Ulp1; chain copies: 2; label: 5' biotin
SARS-CoV-2 N LKR+CTD [4] = target: T2, SARS-CoV-2 N LKR+CTD; assay: as above; conditions: protein: recombinant; tags: 6xHis-SUMO tag removed by Ulp1; chain copies: 2; label: 5' biotin

Binder: AAACGAAC (ssRNA) [TRS-2 (RNA2)]
- Kd (SARS-CoV-2 N-CTD): 180 µM
- Kd (SARS-CoV-2 N CTD+IDR [1]; label: 5' biotin): 9.1 µM
- Kd (SARS-CoV-2 N LKR+CTD [2]): 17 µM

Binder: AAACGAACUU (ssRNA) [TRS-3 (RNA3)]
- Kd (SARS-CoV-2 N-CTD): 150 µM
- Kd (SARS-CoV-2 N CTD+IDR [1]; label: 5' biotin): 5.9 µM
- Kd (SARS-CoV-2 N LKR+CTD [2]): 61 µM

Binder: ACGAAC (ssRNA) [TRS-1 (RNA1)]
- Kd (SARS-CoV-2 N-CTD): 320 µM
- Kd (SARS-CoV-2 N CTD+IDR [3]): 33 µM
- Kd (SARS-CoV-2 N LKR+CTD [4]): 14 µM

B1: Unpaired Duplex TRS-2 (RNA2/RNA4) (dsRNA)
RNA 1: AAACGAAC
RNA 2: GUUCGU
- Kd (SARS-CoV-2 N CTD+IDR [1]; 5' overhang 2 nt (AA) on strand 1 per Methods): 33 µM

B2: Duplex TRS-2 (RNA2/RNA5) (dsRNA)
RNA 1: AAACGAAC
RNA 2: GUUCGUUU
- Kd (SARS-CoV-2 N CTD+IDR [1]; blunt, 8 bp): 18 µM

B3: Duplex TRS-3 (RNA3/RNA6) (dsRNA)
RNA 1: AAACGAACUU
RNA 2: AAGUUCGUUU
- Kd (SARS-CoV-2 N CTD+IDR [1]; blunt, 10 bp): 11 µM

B4: Duplex TRS-1 (RNA1/RNA4) (dsRNA)
RNA 1: ACGAAC
RNA 2: GUUCGU
- Kd (SARS-CoV-2 N CTD+IDR [1]; blunt, 6 bp): 29 µM

B5: Unpaired Duplex TRS-1 (RNA1/RNA5, TRS1-cTRS2) (dsRNA)
RNA 1: ACGAAC
RNA 2: GUUCGUUU
- Kd (SARS-CoV-2 N CTD+IDR [1]; 3' overhang 2 nt (UU) on strand 2): 23 µM
